{"source": "the RNAGym collection of RNA variant scans (doi:10.7554/elife.80360)", "parents": {"B1": {"name": "Hairpin Ribozyme (parent)", "chain": "GUCCUCUUUCACGUGCGCGUGAAAGAGAGAAGUGAACCAGAGAAACACACGUUGUGGUAUAUUACCUGGUA"}}, "data": [{"variants_of": "B1", "experiment": "self-cleavage, relative activity (ratio to wild type); higher = more cleavage; co-transcriptional", "values": [{"variant": "U2A A47G", "self-cleavage": 0.102}, {"variant": "U2A A47C", "self-cleavage": 0.183}, {"variant": "U2A U20C", "self-cleavage": 0.336}, {"variant": "U2A U20A", "self-cleavage": 0.198}, {"variant": "U2G C65G", "self-cleavage": 0.0852}, {"variant": "U2A A30U", "self-cleavage": 0.0131}, {"variant": "U2G C48A", "self-cleavage": 0.213}, {"variant": "U2G C48G", "self-cleavage": 0.116}, {"variant": "U2C A59C", "self-cleavage": 0.0741}, {"variant": "U2C A59G", "self-cleavage": 0.173}, {"variant": "U2A A36G", "self-cleavage": 0.194}, {"variant": "U2A A36U", "self-cleavage": 0.144}, {"variant": "U2C G19A", "self-cleavage": 0.149}, {"variant": "U2C G19C", "self-cleavage": 0.128}, {"variant": "G1C U14A", "self-cleavage": 0.046}, {"variant": "G1C U14C", "self-cleavage": 0}, {"variant": "C3A A35U", "self-cleavage": 0.479}, {"variant": "C3A A35G", "self-cleavage": 0.897}, {"variant": "G1U U20A", "self-cleavage": 0.1}, {"variant": "G1C U20C", "self-cleavage": 0.241}, {"variant": "U2C A35C", "self-cleavage": 0.159}, {"variant": "U2C U33A", "self-cleavage": 0.0916}, {"variant": "G1C G56C", "self-cleavage": 0.202}, {"variant": "G1C G56A", "self-cleavage": 0.0459}, {"variant": "G1C G68A", "self-cleavage": 0.362}, {"variant": "G1U G21A", "self-cleavage": 0.129}, {"variant": "G1U U53A", "self-cleavage": 0.0738}, {"variant": "U2G G15A", "self-cleavage": 0.55}, {"variant": "U2C A11C", "self-cleavage": 0.229}, {"variant": "U2A C3U", "self-cleavage": 0.288}, {"variant": "U2C C37G", "self-cleavage": 0.0267}, {"variant": "U2G U60A", "self-cleavage": 0.402}, {"variant": "G1C G40C", "self-cleavage": 0.0947}, {"variant": "G1C G42C", "self-cleavage": 0.272}, {"variant": "U2C G54U", "self-cleavage": 0.193}, {"variant": "U2A A24G", "self-cleavage": 0.286}, {"variant": "U2A A24U", "self-cleavage": 0.29}, {"variant": "U2G A59G", "self-cleavage": 0.225}, {"variant": "G1C U63G", "self-cleavage": 0.0496}, {"variant": "U2C A41G", "self-cleavage": 0.158}, {"variant": "U2C A47U", "self-cleavage": 0.203}, {"variant": "U2C A47G", "self-cleavage": 0}, {"variant": "C3A A47G", "self-cleavage": 0.191}, {"variant": "U2A C18A", "self-cleavage": 0.23}, {"variant": "U2C C66U", "self-cleavage": 0.0916}, {"variant": "U2A U67A", "self-cleavage": 0.0652}, {"variant": "U2A U5G", "self-cleavage": 0.166}, {"variant": "U2A C48A", "self-cleavage": 0.159}, {"variant": "G1U U67A", "self-cleavage": 0.105}, {"variant": "U2G A44C", "self-cleavage": 0.108}, {"variant": "G1U A39G", "self-cleavage": 0.121}, {"variant": "U2A U58A", "self-cleavage": 0.164}, {"variant": "C3A A44U", "self-cleavage": 0.148}, {"variant": "C3A A44G", "self-cleavage": 0.126}, {"variant": "G1C U2G", "self-cleavage": 0.306}, {"variant": "G1C U2A", "self-cleavage": 0.251}, {"variant": "G1U U7A", "self-cleavage": 0.131}, {"variant": "G1U U7G", "self-cleavage": 0.088}, {"variant": "G1C U7G", "self-cleavage": 0.258}, {"variant": "G1U U33A", "self-cleavage": 0.123}, {"variant": "G1U U33G", "self-cleavage": 0.0782}, {"variant": "U2G U53A", "self-cleavage": 0.195}, {"variant": "U2A C65U", "self-cleavage": 0.128}, {"variant": "U2C A71C", "self-cleavage": 0.444}, {"variant": "U2C A30C", "self-cleavage": 0.185}, {"variant": "U2C A30U", "self-cleavage": 0.0598}, {"variant": "U2C C50G", "self-cleavage": 0.144}, {"variant": "U2C C50A", "self-cleavage": 0.0705}, {"variant": "G1U C48A", "self-cleavage": 0.134}, {"variant": "U2A U55G", "self-cleavage": 0.109}, {"variant": "U2C U20C", "self-cleavage": 0.273}, {"variant": "G1U C46A", "self-cleavage": 0.106}, {"variant": "G1U A36G", "self-cleavage": 0.184}, {"variant": "G1U C4G", "self-cleavage": 0.213}, {"variant": "U2A A23C", "self-cleavage": 0.262}, {"variant": "U2C G69A", "self-cleavage": 0.0698}, {"variant": "U2C G69C", "self-cleavage": 0.0747}, {"variant": "G1C U52C", "self-cleavage": 0.132}, {"variant": "U2G A22U", "self-cleavage": 0.259}, {"variant": "U2C G25C", "self-cleavage": 0.118}, {"variant": "C3A A43U", "self-cleavage": 0.179}, {"variant": "C3A A43C", "self-cleavage": 0.0772}, {"variant": "C3A A36C", "self-cleavage": 0.497}, {"variant": "G1U U52C", "self-cleavage": 0.261}]}]}
